Laboratory results from patent US20100317566A1 (MOREHOUSE SCHOOL OF MEDICINE, published 2010).

Experiments:
Test in all cases: FLAG-peptide resin pulldown from Jurkat lysate, SDS-PAGE, mass spectrometry
[1] = target: T1, Mortalin/GRP75 (UniProt P38646 47-679)
T1 construct: Endogenous protein pulled down from Jurkat cell lysate, identified by mass spectrometry and by Western blot (~75 kDa); also called glucose-regulated protein 75

[2] = target: T2, Vimentin (UniProt P08670 2-466)
T2 construct: Endogenous protein pulled down from Jurkat cell lysate, identified by mass spectrometry

[3] = target: T3, HSC70 (UniProt P11142 2-646)
T3 construct: Endogenous protein pulled down from Jurkat cell lysate, identified by mass spectrometry

[4] = target: T4, GRP78 (UniProt P11021 19-654)
T4 construct: Endogenous protein pulled down from Jurkat cell lysate, identified by mass spectrometry

Measured: binding result

T3 sequence (P11142 2-646 limits assumed): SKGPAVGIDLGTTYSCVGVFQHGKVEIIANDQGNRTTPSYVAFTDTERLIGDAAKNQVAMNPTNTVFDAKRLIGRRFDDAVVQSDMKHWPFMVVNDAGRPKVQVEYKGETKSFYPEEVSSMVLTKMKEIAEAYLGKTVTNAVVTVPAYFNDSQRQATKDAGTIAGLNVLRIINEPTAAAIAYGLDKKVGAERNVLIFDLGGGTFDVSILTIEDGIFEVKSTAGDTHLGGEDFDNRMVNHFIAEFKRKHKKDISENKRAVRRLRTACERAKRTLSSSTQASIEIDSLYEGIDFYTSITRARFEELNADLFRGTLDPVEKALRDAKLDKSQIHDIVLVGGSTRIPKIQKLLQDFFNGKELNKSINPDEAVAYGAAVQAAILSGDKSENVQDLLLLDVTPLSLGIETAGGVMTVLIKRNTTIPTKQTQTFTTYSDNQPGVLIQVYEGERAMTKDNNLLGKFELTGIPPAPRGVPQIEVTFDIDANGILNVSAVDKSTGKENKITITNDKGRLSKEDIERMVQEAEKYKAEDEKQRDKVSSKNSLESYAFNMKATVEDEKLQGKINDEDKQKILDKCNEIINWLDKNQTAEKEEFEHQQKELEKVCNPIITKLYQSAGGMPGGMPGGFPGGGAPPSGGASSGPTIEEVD
T4 sequence (P11021 19-654 limits assumed): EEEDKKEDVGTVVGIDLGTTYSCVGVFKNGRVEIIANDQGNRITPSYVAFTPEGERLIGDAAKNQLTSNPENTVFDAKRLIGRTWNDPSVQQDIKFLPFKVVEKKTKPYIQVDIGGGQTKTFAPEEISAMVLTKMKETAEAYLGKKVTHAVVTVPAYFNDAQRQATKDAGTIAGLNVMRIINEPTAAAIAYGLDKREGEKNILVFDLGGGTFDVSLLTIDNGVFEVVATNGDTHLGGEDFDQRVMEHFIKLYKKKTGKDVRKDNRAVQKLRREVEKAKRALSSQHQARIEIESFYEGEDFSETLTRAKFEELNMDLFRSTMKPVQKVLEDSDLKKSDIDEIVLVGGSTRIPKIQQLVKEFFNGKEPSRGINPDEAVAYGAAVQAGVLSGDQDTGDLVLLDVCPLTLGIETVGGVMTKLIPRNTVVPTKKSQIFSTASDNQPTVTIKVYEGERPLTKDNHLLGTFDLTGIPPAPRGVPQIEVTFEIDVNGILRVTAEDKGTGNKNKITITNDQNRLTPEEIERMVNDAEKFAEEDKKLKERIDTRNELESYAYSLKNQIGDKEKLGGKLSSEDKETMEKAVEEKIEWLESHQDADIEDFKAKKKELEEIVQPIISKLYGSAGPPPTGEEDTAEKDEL
T2 sequence (P08670 2-466 limits assumed): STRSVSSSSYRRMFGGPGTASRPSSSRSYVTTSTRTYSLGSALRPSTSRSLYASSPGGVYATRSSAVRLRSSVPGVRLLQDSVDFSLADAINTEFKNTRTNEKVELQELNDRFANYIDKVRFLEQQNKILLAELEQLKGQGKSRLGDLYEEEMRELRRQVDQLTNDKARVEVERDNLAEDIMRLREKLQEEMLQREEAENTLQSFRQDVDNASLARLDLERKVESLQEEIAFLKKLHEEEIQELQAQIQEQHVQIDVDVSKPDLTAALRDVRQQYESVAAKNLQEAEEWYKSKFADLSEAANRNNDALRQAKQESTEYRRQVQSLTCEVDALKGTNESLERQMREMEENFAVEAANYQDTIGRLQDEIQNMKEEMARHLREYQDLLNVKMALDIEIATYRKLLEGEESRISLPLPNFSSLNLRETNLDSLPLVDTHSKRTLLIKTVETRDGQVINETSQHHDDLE
T1 sequence (P38646 47-679 limits assumed): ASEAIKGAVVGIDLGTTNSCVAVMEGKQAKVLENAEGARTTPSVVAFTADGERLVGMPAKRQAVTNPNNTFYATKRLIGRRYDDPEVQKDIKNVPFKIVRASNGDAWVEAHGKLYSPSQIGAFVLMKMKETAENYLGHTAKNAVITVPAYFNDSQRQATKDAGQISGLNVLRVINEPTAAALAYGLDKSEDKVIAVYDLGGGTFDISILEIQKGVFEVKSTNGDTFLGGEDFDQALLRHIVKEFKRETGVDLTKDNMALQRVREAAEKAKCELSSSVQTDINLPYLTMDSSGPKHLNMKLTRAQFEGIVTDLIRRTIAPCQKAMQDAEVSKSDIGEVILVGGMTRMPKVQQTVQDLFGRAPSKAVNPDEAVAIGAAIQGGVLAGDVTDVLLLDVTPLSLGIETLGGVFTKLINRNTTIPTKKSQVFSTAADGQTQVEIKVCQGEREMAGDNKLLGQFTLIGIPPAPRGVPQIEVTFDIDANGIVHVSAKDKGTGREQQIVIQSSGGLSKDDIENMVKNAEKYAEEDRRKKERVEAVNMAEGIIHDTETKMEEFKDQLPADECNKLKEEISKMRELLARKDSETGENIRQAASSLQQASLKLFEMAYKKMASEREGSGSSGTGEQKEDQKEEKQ

B1: HIV-1 NefSMRmt peptide (H2N-AGFPVAAAGFPVDYKDDDDK-OH) (peptide)
peptide: H-AGFPVAAAGFPVDYKDDDDK-OH
notes: Made commercially; also called SMRmut; HIV-1 NefSMRmut
no binding: all assays above
